This is an account of results in article PMC8571082, “Structural and thermodynamical insights into the binding and inhibition of FIH-1 by the N-terminal disordered region of Mint3” (The Journal of Biological Chemistry, 2021).

Details in all cases: both partners purified
In assay [1] the target is T1, factor inhibiting HIF-1 (FIH-1) (human, UniProt Q9NWT6 1-349).
T1 construct: N-terminal His6 tag and TEV site (ENLYFQ) cleaved with TEV protease; Dimer by SEC and SEC-MALS (about 80 kDa); also called FIH-1 WT; source: E. coli BL21 (DE3), purified (Ni-NTA, TEV cleavage, SEC); not shown: His6, N-terminal, cleaved
The experiment in a line: ITC; Mint3 construct in the syringe (150 μM, 25 injections of 1.5 μl) titrated into 30 μM FIH-1 in the cell; 25 °C; 35 mM Na-phosphate pH 7.5, 300 mM NaCl, 500 μM αKG; single set of sites model.

Another assay has as its target T2, FIH-1 Y71A (human, UniProt Q9NWT6 1-349, Tyr71 replaced with Ala).
T2 construct: also called Tyr71 replaced with Ala; source: E. coli BL21 (DE3), purified (mutants prepared as FIH-1); not shown: His6, N-terminal, cleaved
The experiment in a line: ITC; MicroCal iTC200, 25 °C; 150 μM Mint3 in the syringe, 30 μM FIH-1 in the cell, 25 injections of 1.5 μl; 35 mM Na-phosphate pH 7.5, 300 mM NaCl, 500 μM αKG; single set of sites model; for Figure 4 also in the absence of αKG and/or with EDTA.

For a further assay, the target named is T3, FIH-1 K75A (human, UniProt Q9NWT6 1-349, Lys75 replaced with Ala).
T3 construct: also called Lys75 replaced with Ala; source: E. coli BL21 (DE3), purified (mutants prepared as FIH-1); not shown: His6, N-terminal, cleaved
The assay is described as above.

The target of the next assay is T4, FIH-1 E79A (human, UniProt Q9NWT6 1-349, Glu79 replaced with Ala).
T4 construct: also called Glu79 replaced with Ala; source: E. coli BL21 (DE3), purified (mutants prepared as FIH-1); not shown: His6, N-terminal, cleaved
The description is as above.

In a further assay the target is T5, FIH-1 N171A (human, UniProt Q9NWT6 1-349, Asn171 replaced with Ala).
T5 construct: also called Asn171 replaced with Ala; source: E. coli BL21 (DE3), purified (mutants prepared as FIH-1); not shown: His6, N-terminal, cleaved
Described as above.

Another assay deals with T6, FIH-1 E29A (human, UniProt Q9NWT6 1-349, Glu29 replaced with Ala).
T6 construct: also called Glu29 replaced with Ala (negative control); source: E. coli BL21 (DE3), purified (mutants prepared as FIH-1); not shown: His6, N-terminal, cleaved
Described as above.

The target in a further assay is T7, FIH-1 D248A (human, UniProt Q9NWT6 1-349, Asp248 replaced with Ala).
T7 construct: also called Asp248 replaced with Ala (negative control); source: E. coli BL21 (DE3), purified (mutants prepared as FIH-1); not shown: His6, N-terminal, cleaved
Described as above.

Assay [2] has as its target T8, factor inhibiting HIF-1 (FIH-1), full-length (human, UniProt Q9NWT6 1-349).
T8 construct: Dimer by SEC and SEC-MALS; The TEV site ENLYFQ lay between the His6 tag and FIH-1; also called FIH-1 WT; source: E. coli BL21 (DE3), purified (Ni-NTA, TEV cleavage, SEC); not shown: His6, N-terminal, cleaved
The assay is described as above.

In another assay the target is T9, FIH-1 E250A (human, UniProt Q9NWT6 1-349, Glu250 replaced with Ala).
T9 construct: also called Glu250 replaced with Ala (negative control); source: E. coli BL21 (DE3), purified (mutants prepared as FIH-1); not shown: His6, N-terminal, cleaved
The description is as above.

Changes are numbered by the printed parent chain.

T8 sequence (Q9NWT6 whole entry): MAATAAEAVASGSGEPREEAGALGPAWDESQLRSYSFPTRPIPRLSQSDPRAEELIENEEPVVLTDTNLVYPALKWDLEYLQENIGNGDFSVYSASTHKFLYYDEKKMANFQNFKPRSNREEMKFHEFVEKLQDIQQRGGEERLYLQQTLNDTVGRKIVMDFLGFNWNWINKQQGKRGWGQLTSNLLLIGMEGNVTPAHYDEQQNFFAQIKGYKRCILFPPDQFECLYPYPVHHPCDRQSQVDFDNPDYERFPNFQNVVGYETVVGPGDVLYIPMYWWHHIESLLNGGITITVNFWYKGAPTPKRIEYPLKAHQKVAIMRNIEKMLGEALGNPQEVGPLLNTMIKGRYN
T1 sequence (Q9NWT6 whole entry): as above
T9 sequence (Q9NWT6 whole entry E250A): as the sequence (Q9NWT6 whole entry) above, with E250A counted along it
T4 sequence (Q9NWT6 whole entry E79A): as the sequence (Q9NWT6 whole entry) above, with E79A counted along it
T2 sequence (Q9NWT6 whole entry Y71A): as the sequence (Q9NWT6 whole entry) above, with Y71A counted along it
T5 sequence (Q9NWT6 whole entry N171A): as the sequence (Q9NWT6 whole entry) above, with N171A counted along it
T3 sequence (Q9NWT6 whole entry K75A): as the sequence (Q9NWT6 whole entry) above, with K75A counted along it
T7 sequence (Q9NWT6 whole entry D248A): as the sequence (Q9NWT6 whole entry) above, with D248A counted along it
T6 sequence (Q9NWT6 whole entry E29A): as the sequence (Q9NWT6 whole entry) above, with E29A counted along it

B1: Mint3NT, N-terminal fragment (1-214) of Mint3 (domain or fragment, human, UniProt O96018 1-214, looked up)
chain: MDFPTISRSPSGPPAMDLEGPRDILVPSEDLTPDSQWDPMPGGPGSLSRMELDESSLQELVQQFEALPGDLVGPSPGGAPCPLHIATGHGLASQEIADAHGLLSAEAGRDDLLGLLHCEECPPSQTGPEEPLEPAPRLLQPPEDPDEDSDSPEWVEGASAEQEGSRSSSSSPEPWLETVPLVTPEEPPAGAQSPETLASYPAPQEVPGPCDHED
notes: human Mint3 (X11gamma/APBA3), residues 1-214; also called 1-214 (NT); Mint3(1-214); source: E. coli BL21 (DE3), purified (Ni-NTA, SEC; monomer fraction)
Take B1: in assay [1], the equilibrium dissociation constant (Kd) came to 520 ± 20 nM.

B2: Mint3NT, N-terminal fragment (1–214) of Mint3 (domain or fragment, human, UniProt O96018 1-214, looked up)
chain: B1 chain
notes: Mint3 (X11γ/APBA3), human, N-terminal fragment, residues 1-214; Uniformly 15N-labelled (M9 medium) for the NMR titration; No cleavage site is told for the C-terminal His6 tag; also called Mint3(1–214); 15N-Mint3NT; source: E. coli BL21 (DE3), purified (Ni-NTA, SEC; monomer fraction collected)
As to B2, the binding result with FIH-1 Y71A, with FIH-1 K75A, with FIH-1 E79A, with FIH-1 N171A, with FIH-1 E29A and with FIH-1 D248A was “binds” each time. The binding result with FIH-1 E250A is on record as “binds”. In assay [2], the dH is -32.2 ± 0.7 kcal/mol. The “stoichiometry N” value in assay [2] was 0.48 ± 0.02.

B3: Mint3NTmut, Mint3NT (1–214) with the mutations … → AAASAAAGRD (domain or fragment, human, UniProt O96018 1-214, looked up)
chain: B1 chain with G101A, L102A, L103A, E106A
notes: source: E. coli BL21 (DE3), purified (mutants/fragments prepared as Mint3NT)
For B3, in [2], the Kd was found to be 1310 nM, the dH was -13.9 kcal/mol and the “stoichiometry N” value was ~0.5.

B4: Mint3 fragment (1-92) (domain or fragment, human, UniProt O96018 1-92, looked up)
chain: MDFPTISRSPSGPPAMDLEGPRDILVPSEDLTPDSQWDPMPGGPGSLSRMELDESSLQELVQQFEALPGDLVGPSPGGAPCPLHIATGHGLA
notes: human Mint3 (X11gamma/APBA3), residues 1-92; source: E. coli BL21 (DE3), purified (mutants/fragments of Mint3 prepared as Mint3NT)
B4 yielded an equilibrium dissociation constant (Kd) in assay [1] of 9000 ± 900 nM.

B5: Mint3 fragment (1–92) (domain or fragment, human, UniProt O96018 1-92, looked up)
chain: B4 chain
notes: as for B3
B5: the “stoichiometry N” value in assay [2] is ~0.5.

B6: Mint3(1–117), N-terminal half of Mint3NT (domain or fragment, human, UniProt O96018 1-117, looked up)
chain: MDFPTISRSPSGPPAMDLEGPRDILVPSEDLTPDSQWDPMPGGPGSLSRMELDESSLQELVQQFEALPGDLVGPSPGGAPCPLHIATGHGLASQEIADAHGLLSAEAGRDDLLGLLH
notes: as for B3
Turning to B6, in [2], the Kd was found to be 650 ± 70 nM, the “dH relative to Mint3NT” value is ~0.5 and the “stoichiometry N” value is ~0.5.

B7: short peptide of Mint3 (93–117) (peptide, UniProt O96018 93-117, looked up)
chain: SQEIADAHGLLSAEAGRDDLLGLLH
notes: The methods say only that mutants/fragments of Mint3 were prepared as Mint3NT (E. coli, C-terminal His6); the results call this a peptide and speak of synthesis for the peptide 78-88, so it may be synthetic
In the case of B7, in [2], the Kd is 3000 ± 600 nM and the “stoichiometry N” value is ~0.5.
